{"source": "patent US10434074B2", "about": "“Peptide and small molecule agonists of EPHA and uses thereof” (CASE WESTERN RESERVE UNIVERSITY, priority 2004, dated 2019)", "key": {"[1]": {"system": "Akt and ERK", "experiment": "Akt and ERK activities in DU145 cells expressing WT or dominant negative EphA2", "format": "cell-based, human", "conditions": "DU145 with dominant negative EphA2", "description": "(§1) FIGS. 46(A-D) illustrate A) EphA2 is overexpressed in osseous but not lymph node metastases of human prostate cancer specimens obtained from rapid autopsy. […] DU145 cells were infected with a retroviral vector expressing wild type (WT) or a dominant negative mutant EphA2 where the entire cytoplasmic tail was replaced with GFP. An antibody against the ectodomain of EphA2 was used to determine the expression of endogenous (vector control), WT- and DN-EphA2. D) Upregulation of EphA2 by Ras but not Myc oncogene in NRP152 normal rat prostate epithelial cells.\nas §1, with “We observed that” for “FIGS. 46(A-D) illustrate A)”, “autopsy (FIG. 46A).” for “autopsy.”, “DN-EphA2 (FIG. 46C). We further observed upregulation” for “DN-EphA2. D) Upregulation”, “cells (FIG. 46D).” for “cells.”"}, "[2]": {"system": "integrin-mediated cell adhesion", "experiment": "Integrin-mediated cell adhesion to fibronectin", "format": "cell-based"}, "[3]": {"system": "Akt", "experiment": "Akt activities in PC-3 cells", "format": "cell-based, human"}, "[4]": {"system": "DU-145 cells", "experiment": "HGF/SF-induced cell scattering / EMT", "format": "cell-based, human", "experimental": "FIGS. 4(A-B) illustrate EphA activation attenuated cell scattering induced by HGF/SF. DU-145 cells were cultured in the presence of indicated reagents. Cell morphology was recorded 24 and 48 hours after the initiation of treatments (A). Numbers of total cells and cells without contact with other cells were counted in 6-8 randomly chosen fields (B). * HGF/SF/Fc vs. HGF/SF/ephrinA1-Fc: p<10^−5.\nTumor cells scattering/detaching from primary tumors is considered as the first step in tumor metastasis. In addition to promoting cell migration and invasion, HGF/SF is known to disrupt cell-cell adhesion mediated by E-cadherin, induce epithelial-mesenchymal transition (EMT) and cause cell scattering. Therefore, we examined the effects of EphA2 activation on EMT and scattering induced by HGF/SF. DU-145 cells were treated with Fc (control) or ephrin-A1-Fc in the presence or absence of HGF/SF. Cell morphology was recorded 24 and 48 hours after the addition of stimuli (FIGS. 4A and B). In control Fc-treated cells, only about 5% of cells were found as individual cells with no direct contact with neighboring cells, while remaining cells aggregate to form colonies with typical epithelial morphology. […] Following 24 hour HGF treatment, most of cells underwent EMT characterized by detachment from each other and transformation into spindle-shaped fibroblastic morphology. […]"}, "[5]": {"system": "DU-145 cells", "experiment": "Scattering onto immobilized ligand (SOIL) assay", "format": "cell-based, human", "conditions": "48 hours", "experimental": "FIGS. 2(A-E) illustrate EphA activation inhibited DU-145 cell migration. (A) Expression of c-Met is elevated in cell lines derived from more malignant prostate cancer. Total cellular proteins were immunoblotted with anti-human c-Met. An anti-tubulin blot was used as a control for protein loading. (B) In a modified Boyden chamber assay, DU-145 cells were placed in the upper chamber and allowed to migrate to the lower chamber containing indicated reagents. After 8 hours, cells were stained with crystal violet and cells remaining in the upper chamber were removed. Top panel: Cells migrated to the undersides of membrane were counted; six high power fields were counted. Results represent means±S.D. Representative fields were shown in the lower panel. (C) Ephrin-A1-Fc inhibits DU-145 cell migration when HGF/SF was uniformly presented in both sides of membranes. The experiment was carried out as described in A. (D) Inhibition of cell scattering by immobilized ephrin-A1 in a SOIL assay (Method). Ephrin-A1-Fc or control Fc was immobilized on 6-well culture dishes. Freshly confluent DU-145 cells on cover slips were transferred to the coated surfaces. Cells were stimulated with HGF/SF to induce migration off the cover slips to immobilized Fc or ephrin-A1-Fc. […] The wound healing was recorded prior to and 12 hours after the addition of Fc, ephrin-A1-Fc (1 μg/ml) and/or HGF/SF (20 ng/ml). […]"}, "[6]": {"system": "GFP-PC-3 cells", "experiment": "PC3 xenograft growth in nude mice", "format": "in vivo", "parameters": "s.c. tumor growth: dose or concentration left out as unconfirmed", "description": "Frozen sections were stained with biotinylated rabbit anti-human Fc, and HRP-conjugated streptoavidin."}, "[7]": {"system": "DU-145 cells", "experiment": "MatriGel invasion assay", "format": "cell-based, human", "conditions": "24 hours", "experimental": "FIG. 3 illustrates EphA activation inhibited DU-145 cell invasion. DU-145 cells were placed in the upper chamber of MatriGel-coated Transwell. Fc, ephrin-A1-Fc, HGF/SF/Fc or HGF/SF/ephrin-A1-Fc, were added in the lower chamber. After 24 hours, cells invading through MatriGel and migrated to the undersides of membrane were counted. Representative results (mean±S.D.) from three independent experiments are shown.\nFor invasion assay, the upper chamber was coated with 50 μg of growth factor-reduced MatriGel (BD) according to manufacturer's instructions. The same procedure as in migration assay was followed, except that the cells were allowed 24 hours to migrate to the underside of the membranes."}}}
{"molecule": "ephrin-A1-Fc: ephrin-A1 dimerized by fusion to the heavy chain of human IgG1 (protein, left off: a dimerising Fc or GST, ephrin-A1 dimerized by fusion to the heavy chain of human IgG1) DRHTVFWNSSNPKFRNEDYTIHVQLNDYVDIICPHYEDHSVADAAMEQYILYLVEHEEYQLCQPQSKDQVRWQCNRPSAKHGPEKLSEKFQRFTPFTLGKEFKEGHSYYYISKPIHQHEDRCLRLKVTVSGKITHSPQAHDNPQEKRLAADDPEVRVLHSIGHS", "values": [{"measurement": "Akt and ERK activities", "setting": "[1]", "value": "abolished the inhibitory effects"}, {"measurement": "effect of ligand clustering on inhibition of cell adhesion to fibronectin", "setting": "[2]", "value": "did not increase the inhibitory effects"}, {"measurement": "Akt activities", "setting": "[3]", "value": "inhibition of Akt activities"}, {"measurement": "fraction of scattered cells", "setting": "[4]; 24 hour HGF treatment, 95% with HGF and Fc", "value": 15, "unit": "%"}, {"measurement": "cell morphology", "setting": "[4]; without HGF/SF", "value": "more compact cobblestone morphology"}, {"measurement": "HGF/SF-induced cell migration off cover slips", "setting": "[5]", "value": "significantly reduced"}, {"measurement": "basal cell migration off cover slips", "setting": "[5]", "value": "reduced basal levels of cell migration off cover slips"}, {"measurement": "targeting to tumors", "setting": "[6]; frozen sections stained with anti-human Fc", "value": "target to GFP-PC-3 tumors"}, {"measurement": "tumor growth after three weeks of treatment", "setting": "[6]; i.p.", "value": "lack of effects after three weeks of treatment"}, {"measurement": "s.c. tumor growth", "setting": "[6]; i.p., vs human IgG", "value": "inhibited s.c. tumor growth"}, {"measurement": "HGF/SF-induced cell invasion", "setting": "[7]", "value": "significantly reduced"}, {"measurement": "basal cell invasion", "setting": "[7]", "value": "marginally reduced the basal cell invasion"}]}
